The text below walks through data of patent publication US6867180B1, “Use of calreticulin and calreticulin fragments to inhibit endothelial cell growth and angiogenesis, and suppress tumor growth” (The United States of America as represented by the …, priority 1998, dated 2005).

For experiment [1], the system named is human Burkitt lymphoma cell line CA46. In words: Combination of vasostatin and IL-12 on human Burkitt lymphoma in nude mice. The class given is in vivo, BALB/c nude mice. To be noted: both experiments; MBP-vasostatin 100 μg/day, mIL-12 100-200 ng/day s.c. The procedure: Athymic BALB/c nude mice received 400 rad total body irradiation and 24 hours later were inoculated (4×10^6 cell/mouse) with the human Burkitt lymphoma cell line CA46. A and B. 5 days after cell inoculation the established tumors were treated with daily s.c. inoculations (6 days/week) of either formulation buffer alone (closed circles), MBP-vasostatin alone (Seq. I.D. No. 4; 100 μg/day; open squares), mIL-12 alone (200 ng/day for 8 days followed by 100 ng/day; open circles), or the combination of MBP-vasostatin (Seq. I.D. No. 4) and mIL-12 (same dose used as single agents; open triangles). All mice were sacrificed after 15 days of treatment. C and D. 1 day after cell inoculation, s.c. treatment with MBP-vasostatin (Seq. I.D. No. 4; 100 μg/day; 6 days/week) or formulation buffer was started; s.c. treatment with IL-12 (100 ng/mouse; 6 days/week) was started 2 days later in mice that had received buffer alone or MBP-vasostatin (Seq. I.D. No. 4). Therefore, four groups of mice were tested: Mice receiving buffer alone (closed circles); MBP-vasostatin alone (open squares); IL-12 alone (open circles); and MBP-vasostatin plus IL-12 (open triangles). The mice received 7 days treatment with MBP-vasostatin (Seq. I.D. No. 4) and 5 days treatment with IL-12, and were observed untreated for 14 days at which time all mice were sacrificed. […]

The subject of experiment [2] is human Burkitt lymphoma cells (CA46 cell line). In words: Prevention of human Burkitt lymphoma growth in athymic mice. The format is in vivo, BALB/c athymic mice. To be noted: 4×10^6 CA46 cells; 75 μg/day, 6 days/week, 42 days. From the text: FIGS. 6A, 6B, 6C and 6D are graphs showing the inhibition of tumor growth by vasostatin (Seq. I.D. No. 4) and calreticulin (Seq. I.D. No. 3). Burkitt lymphoma cells (CA46 cell line, 1×10^7 cells) were inoculated subcutaneously (s.c.) into BALB/c athymic mice, 6 weeks of age. Beginning on the day of cell inoculation and continuing thereafter daily, 6 days/week, mice were inoculated s.c. with either control buffer (open symbols) or test protein (closed symbols). The results reflect the % mice with tumor as a function of time. A. 12 mice were inoculated with control purified GST protein (Seq. I.D. No. 2; 20 μg/day×14 days), and 13 mice were inoculated with purified GST-calreticulin ([…]; 60 μg/day×14 days). […]
BALB/c nu/nu female mice, 6 weeks of age (National Cancer Institute, Frederick, Md.) maintained in pathogen-limited conditions, received 400 rad (1 rad=0.01 Gy) total body irradiation and 24 hours later were injected s.c. in the right abdominal quadrant with 10^7 exponentially growing human Burkitt lymphoma cells (CA46 cell line; Sgadari et al., Proc. Natl. Acad. Sci. U.S.A. 93:13791-13796, 1996) in 0.2 ml PBS. […] A subcutaneous mass appearing at or proximal to the site of cell inoculation was considered a tumor when it measured at least 0.16 cm^2 in surface area and increased in size by at least 0.1 cm^2 over the following week. […]

The subject of experiment [3] is Fetal bovine heart endothelial cells.
Experimental: Fetal bovine heart endothelial cells (American Type Culture Collection, ATCC, Manassas, Va.) were grown through passage 12 in DMEM culture medium (BioWhittaker, Walkersville, Md.) containing 10% heat inactivated fetal bovine serum (BioWhittaker), 100 ng/ml bFGF (R&D Systems, Minneapolis, Minn.), and 5 μg/ml gentamicin (Sigma). For proliferation assays, cells were trypsinized (Trypsin/EDTA, Gibco BRL), washed, suspended in culture medium (DMEM containing 10% heat inactivated fetal bovine serum and 5 μg/ml gentamicin), plated (800 cells/well in 0.2 ml culture medium) in triplicate onto 96 well plates, and incubated for 5 days.
For experiment [4], the system named is peptides KLGFFKR, KAFFKR and KVFFKR coupled to CNBr-activated Sepharose. Nature of the experiment: Affinity column binding to integrin / steroid receptor motif peptides. To be noted: elution with 20 mM EDTA. The source says: FIG. 18 is a Western blot analysis of fractions obtained through affinity purification over a column containing KXaa1FFXaa2R (Seq. I.D. No. 11) and KXaa1GFFKR (Seq. I.D. No. 10). Purified supernatants from the VDS-0 cell line containing full length calreticulin and N-terminal fragments of calreticulin were affinity purified over a mixture of peptides KLGFFKR (Seq. I.D. No. 13), KAFFKR (Seq. I.D. No. 33) and KVFFKR (Seq. I.D. No. 32) coupled to CNBr-activated Sepharose. Starting material (lane 1), unbound material (lanes 2, 3) and bound material (lanes 4, 5) were separated by SDS-PAGE, transferred to nitrocellulose, and subsequently stained with a rabbit antiserum against human calreticulin.
To this end, purified preparations of the VDS-O cell line containing full length calreticulin (Seq. I.D. No. 3) as well as N-terminal calreticulin fragments were prepared and tested to determine how these components were retained over an affinity column. To prepare the affinity column, three peptides were synthesized ([…], Seq. I.D. 13; KAFFKR, Seq. I.D. No. 33; and KVFFKR, Seq. I.D. No. 32), purified, and coupled to CNBr-activated Sepharose 4B (Pharmacia). First, the ability of calreticulin, purified from the culture supernatant of the lymphoblastoid cell line VDS-O, to selectively bind to the column and be eluted by a buffer solution containing 20 mM EDTA and 100 mM NaCl, was verified. […]

The subject of experiment [5] is bFGF-induced neovascularization. In words: Murine Matrigel assay of angiogenesis in vivo. On the set-up: species or system BALB/c nude mice. To be noted: Exp. 4; concentration not given; bFGF 150 ng/ml. The procedure:
The murine Matrigel assay (Passaniti et al., Lab. Invest. 67:519-528, 1992) was employed to evaluate the effects of calreticulin and calreticulin fragments on angiogenesis in vivo. The Matrigel assay was performed as described by Angiolillo et al. (J. Exp. Med. 182:155-162, 1995). Matrigel, a crude extract of the Englebreth-Holm-Swarm tumor, was obtained from Collaborative Biomedical Products, Becton Dickinson Labware, Bedford, Mass. An aliquot (0.5 ml) of Matrigel alone or with desired additives was injected subcutaneously (s.c.) into the mid abdominal region of female BALB/c nude mice, 6-8 weeks old. Five mice were injected with each mixture. After 5-7 days, the animals were sacrificed, Matrigel plugs were removed, fixed in 10% neutral buffered formalin solution (Sigma), and embedded in paraffin. Tissues were sectioned (5μ thickness), and slides stained with Masson's trichrome. Quantitative analysis of angiogenesis in Matrigel plugs utilized a computerized semi-automated digital analyzer (Optomax, 40-10 System, Hollis, N.H.). The instrument was adjusted to evaluate a circular area measuring […] of Matrigel, and within this area, to measure the area occupied by cells. For each plug, 12-15 distinct fields were evaluated. The fields were randomly selected from each plug, and the operator was blind to the experimental design. The average area occupied by cells/1.26×10^5 […] Matrigel field was calculated. Results are expressed as the mean area occupied by cells/Matrigel field.
Matrigel plugs were fixed in 10% neutral buffered formalin solution (Sigma), embedded in paraffin, sectioned at 4 μm, and stained with Masson's trichrome by standard methods.

B1: mIL-12: murine IL-12 (Interleukin 12) (protein, UniProt P43431 23-215; P43432 23-335, looked up)
Interleukin-12 subunit alpha: RVIPVSGPARCLSQSRNLLKTTDDMVKTAREKLKHYSCTAEDIDHEDITRDQTSTLKTCLPLELHKNESCLATRETSSTTRGSCLPPQKTSLMMTLCLGSIYEDLKMYQTEFQAINAALQNHNHQQIILDKGMLVAIDELMQSLNHNGETLRQKPPVGEADPYRVKMKLCILLHAFSTRVVTINRVMGYLSSA
Interleukin-12 subunit beta: MWELEKDVYVVEVDWTPDAPGETVNLTCDTPEEDDITWTSDQRHGVIGSGKTLTITVKEFLDAGQYTCHKGGETLSHSHLLLHKKENGIWSTEILKNFKNKTFLKCEAPNYSGRFTCSWLVQRNMDLKFNIKSSSSSPDSRAVTCGMASLSAEKVTLDQRDYEKYSVSCQEDVTCPTAEETLPIELALEARQQNKYENYSTSFFIRDIIKPDPPKNLQMKPLKNSQVEVSWEYPDSWSTPHSYFSLKFFVRIQRKKEKMKETEEGCNQKGAFLVEKTSTEVQCKGGNVCVQAQDRYYNSSCSKWACVPCRVRS
B1: the “rate of tumor growth and mean weight of tumors compared with formulation buffer” value in experiment [1] is “reduced”.

B2: MBP-120-180 calreticulin: recombinant 61 amino acid calreticulin fragment, amino acids 120-180 (Seq. I.D. No. 5), fused to MBP (protein)
chain: CGPGTKKVHVIFNYKGKNVLINKDIRCKDDEFTHLYTLIVRPDNTYEVKIDNSQVESGSLE
modifications: left off: large carriers
Regarding B2, the “rate of Burkitt tumor growth compared to controls” value in experiment [2] was “significantly reduced”. In experiment [3] (0.5 μg/ml, bFGF-induced), the “inhibition of fetal bovine heart endothelial cell proliferation” value was found to be 65%. Besides, the “endothelial cell growth inhibitory activity in vitro, side-by-side comparison on a molar basis” value in experiment [3] (0.4-32 nM, bFGF 15 ng/ml, 5 days) is listed as “similar”. Further, the “binding to peptide affinity column” value in experiment [4] was “failed to bind”. Moreover, in experiment [5], the “Inhibition (%)” value is listed as 70% and the “Mean Surface Area Occupied by Cells” value is reported as 2,458 mm^2/1.26 × 10^5 mm^2.
